From patent US20220056125A1 (CEPHALON, published 2022)

T1: human PAR-2 (human, UniProt P55085 26-397)
T1 sequence: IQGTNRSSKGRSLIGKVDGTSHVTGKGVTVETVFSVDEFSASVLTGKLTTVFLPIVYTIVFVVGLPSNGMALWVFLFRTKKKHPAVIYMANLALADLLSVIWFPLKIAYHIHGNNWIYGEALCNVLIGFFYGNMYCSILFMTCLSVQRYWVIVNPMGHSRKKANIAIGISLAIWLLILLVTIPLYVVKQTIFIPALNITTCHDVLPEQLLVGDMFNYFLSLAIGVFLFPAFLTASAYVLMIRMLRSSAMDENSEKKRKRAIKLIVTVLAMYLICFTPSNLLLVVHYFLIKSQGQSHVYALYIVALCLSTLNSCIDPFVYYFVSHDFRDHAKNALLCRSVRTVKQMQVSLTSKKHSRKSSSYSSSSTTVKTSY

T2: human PAR-1 (human, UniProt P25116 22-425)
T2 construct: also called huPAR-1
T2 sequence: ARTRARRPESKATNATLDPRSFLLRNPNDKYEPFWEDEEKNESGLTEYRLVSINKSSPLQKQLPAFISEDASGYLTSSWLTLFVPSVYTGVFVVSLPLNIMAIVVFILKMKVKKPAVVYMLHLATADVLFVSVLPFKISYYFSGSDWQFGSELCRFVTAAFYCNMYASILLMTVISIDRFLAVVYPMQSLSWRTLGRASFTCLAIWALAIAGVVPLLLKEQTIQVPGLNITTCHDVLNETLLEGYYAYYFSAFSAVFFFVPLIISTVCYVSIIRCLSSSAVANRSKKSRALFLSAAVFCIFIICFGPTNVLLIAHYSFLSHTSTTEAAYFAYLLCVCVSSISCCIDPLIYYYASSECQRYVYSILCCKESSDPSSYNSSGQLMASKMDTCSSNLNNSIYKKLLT


Experiments:
[1] = target: T1, human PAR-2; experiment: cell-based or functional assay
[2] = target: T2, human PAR-1; experiment: flow cytometry, transfected Expi293F cells
Experimental: Paired heavy and light chains encoded by these sequence pairs were expressed as a full length human IgG4 isotype antibodies and assessed for PAR-2 binding and selectivity by flow cytometry. […] Cells were used for flow cytometric analysis 36-48 hours post-transfection. Use of Nt-PAR-2 as a target allowed antibodies which bound the N-terminal residues of PAR-2 (which comprise the protease-cleavage sites on PAR-2) to be distinguished from antibodies which bound other extracellular sites on PAR-2, such as the PAR-2-activating ligand-binding site(s). Expi293F cells, transiently expressing one of each of the different target proteins were labelled with different intensities of a single fluorphor Encoder dye (Intellicyt) for 10 mins at either 1 in 250 dilution for high intensity and/or 1 in 1500 dilution for moderate intensity, enabling simultaneous analysis of multiple cell populations. After washing the cells were then mixed in an equal ratio with the unlabeled cell type and analyzed for antibody binding.
The cells were plated in 96 well plates at 2×10⁵ cells/well. Following a wash step using Phosphate buffered saline (PBS), the primary antibody (anti-PAR-2 antibody) was added at a concentration of 10 μg/mL in 50 μL of FACS buffer (0.5% w/v BSA in PBS) to each well and incubated for 10-15 mins. Following a wash step, secondary antibody (anti-human Fc-FITC) was added to the wells at 1:200 dilution in 50 μL for 10-15 mins. Following a washing step, the cells were re-suspended in fluorescence-activated cell sorting (FACS) buffer. The flow cytometry analysis was performed on an Intellicyt iQue screener. Gates were drawn around the different intensities of encoder dye-positive cells and these populations were analyzed separately from each other and the unlabeled cells for binding by the primary antibody.

[3] = target: T1, human PAR-2; experiment: cell-based or functional assay; remark: listed apart in the source

| Binder | IC50, PAR-2 β-arrestin cell assay [1] | binding result [2] | PAR-2 β-arrestin cell based assay IC50, 2 µM SLIGKV [3] |
| --- | --- | --- | --- |
| Ab261 (antibody, human IgG4, V domains shown, also called Anti-PAR-2 antibody # 261) VH: EVQLVESGGGLVQPGRSLKLSCVASGFTFNNYWMTWIRQAPGKGLEWVASITNTGGNTYYPDSVKGRFTISRDNAKSTLYLQMNSLRSEDTATYYCTRDRIIRGADWFAYWGQGTLVTVSS VL: DIQMTQSPHSLSASLGETVSIECLASEGISNYLAWFQQKPGKSPQLLIYYASSLQDGVPSRFSGSGSGTQYSLKISNMQPEDEGVYYCQQGYKYPWTFGGGTKLELK | 0.0199 µM | no binding (tested: 10 µg/mL) |  |
| Ab380 (antibody, human IgG4, V domains shown, also called Anti-PAR-2 antibody # 380) VH: EVQLVESGGGLVQPGRSLKLSCVATGFTFNNYWMTWIRQAPGKGLEWVASITNSGGNTYYPDSVKGRFTISRDDAKSTLYLQMNSLRSEDTATYYCTRVRVYYGSNWFVYWGQGTLVTVSS VL: DIQMTQSPHSLSASLGETVSIECLASEGISNYLAWFQQKPGKSPQLLIYYASSLQDGVPSRFSGSGSGTQYSLKISNMQPEDEGVYYCQQGYKYPWTFGGGTKLELK | 0.0571 µM | no binding (tested: 10 µg/mL) |  |
| Ab435 (antibody, human IgG4, V domains shown) VH: EVQLVESGGGLVQPGRSLKLSCVGSGFTFNNYWMTWIRQAPGWGLEWVASITNTGGRTYYPDSVKGRFTISRDNAKSTLYLQMNSLRSEDTATYYCTRDRVYYGSNWFVYWGQGTLVTVSS VL: DIQMTQSPHSLSASLGETVSIECLASEGISNYLAWYQQKPGKSPQLLIYYASSLQDGVPSRFSGSGSGTQYSLKISNMQPEDEGIYYCQQHYKYPWTFGGGTKLELK | 0.0538 µM | no binding (tested: 10 µg/mL) |  |
| Ab228 (antibody, human IgG4, V domains shown) VH: EVQLVESGGGLVQPGRSLKLSCVVSGFTFNNYWMTWIRQAPGKGLEWVASITNSGGNTYYPDSVKGRFTISRDNAKSTLYLQMNSLRSEDTATYYCTRDRIIRGSTWFAYWGQGTLVTVSS VL: DIQMTQSPHSLSASLGETVSIECLASEGISNYLAWYQQKPGKSPQLLIYYASSLQDGVPSRFSGSGSGTQYSLKISNMQPEDEGVYYCHQGYKYPWTFGGGTKLELK | 0.0333 µM | no binding (tested: 10 µg/mL) |  |
| Ab227 (antibody, human IgG4, V domains shown, also called Anti-PAR-2 antibody # 227) VH: EVQLVESGGGLVQPGRSLKLSCVASGFTFNNYWMTWIRQAPGKGLEWVASITNSGGRTYYPDSVKGRFTVSRDSAKSTLYLQMNSLRSEDTATYYCTRDRIIRGSTWFTYWGQGTLVTVSS VL: DIQMTQSPHSLSASLGETVSIECLASEGISNYLAWFQQKPGKSPQLLIYYASSLQDGVPSRFSGSGSGTQYSLKISNMQPEDEGVYYCQQGYKYPWTFGGGTELELK | 0.0102 µM | no binding (tested: 10 µg/mL) |  |
| Ab140 (antibody, human IgG4, V domains shown, also called Anti-PAR-2 antibody # 140) VH: EVQLVESGGGLVQPKGSLKLSCAASGFTFNSYAMHWVRQAPGKGLEWVACIRSKSSYYATYYADSVKDRFTISRHDSQSMLYLQMNNLKTEDTAMYYCVREDYYGSSYDYWGQGTTLTVSS VL: QIVLTQSPAIMSASLGERVTMTCTASSSVSSSYLHWYQQKPGSSPKLWIYATSNLASGVPARFSGSGSGTSYSLTISSMEAEDAATYYCHQYHRSPLTFGAGTKLELK | 0.0201 µM | no binding (tested: 10 µg/mL) |  |
| Ab189 (antibody, human IgG4, V domains shown, also called Anti-PAR-2 antibody # 189) VH: EVQLVESGGGLVQPKGSLKLSCAASGFTFNTYAMHWVRQAPGKGLEWVARIRSKTTNYATYYADSVKDRFTISRDDSQSMLYLQISNLKTEDTAMYYCVREDYYGSSLDYWGQGTTLTVSS VL: QIVLTQSPAIMSASLGERVTMTCTASSSVISSYLHWYQQKPGSSPKLWIFSTSNLASGVPARFSGSGSGTSYSLTISTMEAEDAATYYCHQYHRSPLTFGAGTKLELK | 0.123 µM | no binding (tested: 10 µg/mL) |  |
| Ab201 (antibody, human IgG4, V domains shown) VH: QVQLQQSGPELVKPGASVKISCKASGFSFTSFYIHWVNQRPGQGLEWIGWIYPGSGNTLYNEKFKGKATLTADTSSSTAYIHLSSLTSEDSAVYYCTRGPLFYGSSHWYFDVWGMGTTVTVSS VL: EVQITQSPSYLAASPGETITINCRASKSISKYLAWYQEKPGKTNKLLIYSGSTLQSGIPSRFSGSGSGTDFTLTISSLEPEDFAMYYCQQHNKYPLTFGAGTRLELK | 0.0107 µM | no binding (tested: 10 µg/mL) |  |
| Ab225 (antibody, human IgG4, V domains shown, also called Anti-PAR-2 antibody # 225) VH: QVQLKESGPGLVQPSQTLSLTCTVSGFSLTSYHVSWVRQSPGKGLEWMGIIWTGGSTAYNSLLKSRLSISRDTSKSQVFLKMNSLQTEDTATYYCARRGAYPFYFDYWGQGVMVTVSS VL: EIVLTQSPTTMAASPGEKVTITCRASSSVRSMYWYQQKSGASPKPWIYETSKLTSGVPDRFSGSGSGTSYSFTISSMGTEDAGTYYCHQWTTTPYTFGAGTKLELK | 0.0034 µM | no binding (tested: 10 µg/mL) |  |
| Ab192 (antibody, human IgG4, V domains shown, also called Anti-PAR-2 antibody # 192) VH: QVQLQQPGTELVKPGASVKLSCKASGYTFTSYWMHWIKQRPGQGLEWIGNINPSSGGTNYNEKFKTKATLTVDKSSSTAYMQLSSLTSEDSAVYYCAGEAYSNYVAWFAYWGQGTLVTVSS VL: ENVLTQSPAIMSASLGEKVTMSCRASSSVNYMYWYQQKSDASPKLWIYYTSNLAPGVPARFSGSGSGTSYSLTISSMEGEDAATYYCQQFTTSPYTFGGGTKLEIK | 0.1 µM | no binding (tested: 10 µg/mL) |  |
| Ab209 (antibody, human IgG4, V domains shown, also called Anti-PAR-2 antibody # 209) VH: QVQLQQPGTELVKPGASVKLSCKASGYTFTSYWMHWIKQRPGQGLEWIGNINPSTGSTNFNVKFKTKATLTVDKSSSTTYMQLNSLTSEDSAVYYCAGEAYSNYVAWFAYWGQGTLVTVSS VL: ENVLTQSPAIMSASLGEKVTMSCRASSSVNYMYWYRQKSDASPKLWIYYTSNLAPGVPTRFSGSGSGTSYSLTISSMEGEDAATYYCQQFTTSPYTFGGGTKLEIK | 0.0655 µM | no binding (tested: 10 µg/mL) |  |
| Ab234 (antibody, human IgG4, V domains shown, also called Anti-PAR-2 antibody # 234) VH: EVQLVETGGGLVQPGRSLKLSCVASGFTFNNYWLYWIRQAPGKGLEWVSSINNDGGGTYYPDSVKGRFTVSRDNAENTVYLQMNSLRSEDTATYYCARDRAFIRGRFAYWGQGTLVTVSS VL: EIVLTQSPTTMAASPGEKVTLTCRASSSVIYMHWYQQRSGASPKLWIYETSKLASGVPNRFGGSGSGTSYSLTINSMETEDAATYYCQQGSYYPWTFGGGTKLELK | 0.0048 µM | no binding (tested: 10 µg/mL) |  |
| P24E883 (antibody, human IgG4 S228P, kappa, V domains shown) VH: QVQLVQSGAEVKKPGSSVKVSCKASGFSLSSYAISWVRQAPGQGLEWMGVIWGNGNTYYAQKFQGRVTITADESTSTAYMELSSLRSEDTAVYYCARWRGYKDYPFDYWGQGTLVTVSS VL: EIVLTQSPATLSLSPGERATLSCKASQNVYKWLDWYQQKPGQAPRLLIYNAYSLATGIPARFSGSGSGRDFTLTISSLEPEDFAVYYCQQHNSGWTFGGGTKVEIKR |  |  | 0.00121 µM |
| P24E889 (antibody, human IgG4 S228P, kappa, V domains shown) VH: QVQLVQSGAEVKKPGSSVKVSCKASGFSLSSYAISWVRQAPGQGLEWMGVIWGNGNTYYAQKFQGRVTITADESTSTAYMELSSLRSEDTAVYYCARWRGYKDYPFDYWGQGTLVTVSS VL: EIVLTQSPATLSLSPGERATLSCRASQNIYKWLDWYQQKPGQAPRLLIYNAYSLATGIPARFSGSGSGRDFTLTISSLEPEDFAVYYCQQHNSGWTFGGGTKVEIKR |  |  | 0.00097 µM |
| P24E914 (antibody, human IgG4 S228P, kappa, V domains shown) VH: QVQLVQSGAEVKKPGSSVKVSCKASGFSLSSYAISWVRQAPGQGLEWMGVIWGNGNTYYAQKFQGRVTITADESTSTAYMELSSLRSEDTAVYYCARWKGYKDYPFDYWGQGTLVTVSS VL: EIVLTQSPATLSLSPGERATLSCRASQNIYKWLDWYQQKPGQAPRLLIYNAYSLATGIPARFSGSGSGRDFTLTISSLEPEDFAVYYCQQHNSGWTFGGGTKVEIKR |  |  | 0.00094 µM |
